The results in this text go back to patent publication US20050209148A1 (RINAT NEUROSCIENCE, published 2005).

Where two headings read alike, the source gives them in different places.

Assay [1] has as its target T1, human TrkB expressed on a stable cell line (human, UniProt Q16620 32-822). As to the kind of experiment: cell-based or functional assay.
Assay [2] concerns the target T1, human TrkB expressed on a stable cell …. The experiment in a line: cell-based or functional assay. This is another data set of the same source.

T1 sequence (Q16620 32-822): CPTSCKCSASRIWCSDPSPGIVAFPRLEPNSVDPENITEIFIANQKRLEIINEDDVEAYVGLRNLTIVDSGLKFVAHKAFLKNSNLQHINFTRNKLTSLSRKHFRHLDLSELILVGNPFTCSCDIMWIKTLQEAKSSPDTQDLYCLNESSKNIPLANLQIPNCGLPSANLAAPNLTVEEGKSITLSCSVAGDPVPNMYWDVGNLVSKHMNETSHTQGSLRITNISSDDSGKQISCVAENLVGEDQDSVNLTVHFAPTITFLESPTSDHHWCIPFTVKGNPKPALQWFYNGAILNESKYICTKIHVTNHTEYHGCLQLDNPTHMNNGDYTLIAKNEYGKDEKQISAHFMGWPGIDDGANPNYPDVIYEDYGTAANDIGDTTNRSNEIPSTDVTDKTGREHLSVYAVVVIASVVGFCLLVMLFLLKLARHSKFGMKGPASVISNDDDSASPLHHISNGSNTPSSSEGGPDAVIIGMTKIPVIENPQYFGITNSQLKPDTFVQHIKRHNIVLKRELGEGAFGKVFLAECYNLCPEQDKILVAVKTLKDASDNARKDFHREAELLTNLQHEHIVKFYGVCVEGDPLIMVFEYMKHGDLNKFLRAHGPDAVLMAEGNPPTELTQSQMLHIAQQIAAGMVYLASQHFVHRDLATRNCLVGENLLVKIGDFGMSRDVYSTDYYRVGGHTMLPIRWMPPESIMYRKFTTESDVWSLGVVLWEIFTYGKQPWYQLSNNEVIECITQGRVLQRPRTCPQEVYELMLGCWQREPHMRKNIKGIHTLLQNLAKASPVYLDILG

B1: human NT-4/5 (mature human neurotrophin-4/5) (ligand)
chain: GVSETAPASRRGELAVCDAVSGWVTDRRTAVDLRGREVEVLGEVPAAGGSPLRQYFFETRCKADNAEEGGPGAGGGGCRGVDRRHWVSECKAKQSYVRALTADAQGRVGWRWIRIDTACVCTLLSRTGRA
B1: the “EC50 (read off the curve), receptor tyrosine phosphorylation in trkB expressing cell line” value (from here on “EC50 (read off the curve)”) in assay [1] was roughly 200 pM; in assay [2], roughly 700 pM.

B2: 1PEG-NT4-G1S (ligand)
chain 1: SVSETAPASRRGELAVCDAVSGWVTDRRTAVDLRGREVEVLGEVPAAGGSPLRQYFFETRCKADNAEEGGPGAGGGGCRGVDRRHWVSECKAKQSYVRALTADAQGRVGWRWIRIDTACVCTLLSRTGRA
chain 2: SVSETAPASRRGELAVCDAVSGWVTDRRTAVDLRGREVEVLGEVPAAGGSPLRQYFFETRCKADNAEEGGPGAGGGGCRGVDRRHWVSECKAKQSYVRALTADAQGRVGWRWIRIDTACVCTLLSRTGRA
modifications: no PEG; N-terminal serine (position 1) treated with periodate (oxidized to an aldehyde); N-terminal serine (position 1) oxidized to an aldehyde and linked to 20K-m-PEG-HZ (methoxy polyethylene glycol hydrazide, 20 kDa)
Regarding B2, in assay [2], the “EC50 (read off the curve)” value is roughly 1000 pM.

B3: 2PEG-NT4-G1S (ligand)
chain: SVSETAPASRRGELAVCDAVSGWVTDRRTAVDLRGREVEVLGEVPAAGGSPLRQYFFETRCKADNAEEGGPGAGGGGCRGVDRRHWVSECKAKQSYVRALTADAQGRVGWRWIRIDTACVCTLLSRTGRA
modifications: N-terminal serine (position 1) oxidized to an aldehyde and linked to 20K-m-PEG-HZ (methoxy polyethylene glycol hydrazide, 20 kDa)
On to B3, for which the “EC50 (read off the curve)” value in assay [2] was roughly 1000 pM.
